In patent publication US8530168B2, “Fusion protein comprising a Caspase domain and a nuclear hormone receptor binding domain and methods and uses thereof” (Helmholtz Zentrum Munich Deutsches Forschungszentrum fuer …, priority 2007, dated 2013):

B1: Casp9full-ER(T2): full length murine Caspase-9 fused to ER(T2) ligand binding domain, SEQ ID NO: 29 (protein)
chain: MDEADRQLLRRCRVRLVSELQVAELWDALLSRELFTRDMIEDIQQAGSGSRRDQARQLVTDLETRGRQALPLFISCLEDTGQGTLASLLQSGRQAAKQDPEAVKPLDHLVPVVLGPMGLTAKEQRVVKLDPSQPAVGNLTPVVLGPEELWPARLKPEVLRPETPRPVDIGSGGAHDVCVPGKIRGHADMAYTLDSDPCGHCLIINNVNFCPSSGLGTRTGSNLDRDKLEHRFRWLRFMVEVKNDLTAKKMVTALMEMAHRNHRALDCFVVVILSHGCQASHLQFPGAVYGTDGCSVSIEKIVNIFNGSGCPSLGGKPKLFFIQACGGEQKDHGFEVACTSSQGRTLDSDSEPDAVPYQEGPRPLDQLDAVSSLPTPSDILVSYSTFPGFVSWRDKKSGSWYIETLDGILEQWARSEDLQSLLLRVANAVSAKGTYKQIPGCFNFLRKKLFFKTSVEPSAGDMRAANLWPSPLMIKRSKKNSLALSLTADQMVSALLDAEPPILYSEYDPTRPFSEASMMGLLTNLADRELVHMINWAKRVPGFVDLTLHDQVHLLECAWLEILMIGLVWRSMEHPVKLLFAPNLLLDRNQGKCVEGMVEIFDMLLATSSRFRMMNLQGEEFVCLKSIILLNSGVYTFLSSTLKSLEEKDHIHRVLDKITDTLIHLMAKAGLTLQQQHQRLAQLLLILSHIRHMSNKGMEHLYSMKCKNVVPLYDLLLEAADAHRLHAPTSRGGASVEETDQSHLATAGSTSSHSLQKYYITGEAEGFPATA
modifications: fusion protein Casp9full-ER(T2)
B2: Cre-ER(T2): fusion of Cre recombinase to ER(T2) ligand binding domain, negative control, SEQ ID NO: 5 (protein)
chain: MSNLLTVHQNLPALPVDATSDEVRKNLMDMFRDRQAFSEHTWKMLLSVCRSWAAWCKLNNRKWFPAEPEDVRDYLLYLQARGLAVKTIQQHLGQLNMLHRRSGLPRPSDSNAVSLVMRRIRKENVDAGERAKQALAFERTDFDQVRSLMENSDRCQDIRNLAFLGIAYNTLLRIAEIARIRVKDISRTDGGRMLIHIGRTKTLVSTAGVEKALSLGVTKLVERWISVSGVADDPNNYLFCRVRKNGVAAPSATSQLSTRALEGIFEATHRLIYGAKDDSGQRYLAWSGHSARVGAARDMARAGVSIPEIMQAGGWTNVNIVMNYIRNLDSETGAMVRLLEDGDLEPSAGDMRAANLWPSPLMIKRSKKNSLALSLTADQMVSALLDAEPPILYSEYDPTRPFSEASMMGLLTNLADRELVHMINWAKRVPGFVDLTLHDQVHLLECAWLEILMIGLVWRSMEHPVKLLFAPNLLLDRNQGKCVEGMVEIFDMLLATSSRFRMMNLQGEEFVCLKSIILLNSGVYTFLSSTLKSLEEKDHIHRVLDKITDTLIHLMAKAGLTLQQQHQRLAQLLLILSHIRHMSNKGMEHLYSMKCKNVVPLYDLLLEAADAHRLHAPTSRGGASVEETDQSHLATAGSTSSHSLQKYYITGEAEGFPATA
modifications: fusion protein Cre-ER(T2)
B3: Casp8-ER(T2): fusion of murine Caspase-8 domain to the ER(T2) ligand binding domain, SEQ ID NO: 20 (protein)
chain: MSESRTSDKVYQMKNKPRGYCLIINNHDFSKAREDITQLRKMKDRKGTDCDKEALSKTFKELHFEIVSYDDCTANEIHEILEGYQSADHKNKDCFICCILSHGDKGVVYGTDGKEASIYDLTSYFTGSKCPSLSGKPKIFFIQACQGSNFQKGVPDEAGFEQQNHTLEVDSSSHKNYIPDEADFLLGMATVKNCVSYRDPVNGTWYIQSLCQSLRERCPQGDDILSILTGVNYDVSNKDDRRNKGKQMPQPTFTLRKKLFFPPLEPSAGDMRAANLWPSPLMIKRSKKNSLALSLTADQMVSALLDAEPPILYSEYDPTRPFSEASMMGLLTNLADRELVHMINWAKRVPGFVDLTLHDQVHLLECAWLEILMIGLVWRSMEHPVKLLFAPNLLLDRNQGKCVEGMVEIFDMLLATSSRFRMMNLQGEEFVCLKSIILLNSGVYTFLSSTLKSLEEKDHIHRVLDKITDTLIHLMAKAGLTLQQQHQRLAQLLLILSHIRHMSNKGMEHLYSMKCKNVVPLYDLLLEAADAHRLHAPTSRGGASVEETDQSHLATAGSTSSHSLQKYYITGEAEGFPATA
modifications: fusion protein Casp8-ER(T2)
B4: myrCasp8-ER(T2): murine Caspase-8 domain with N-terminal myristoylation motif fused to ER(T2) ligand binding domain, SEQ ID NO: 23 (protein)
chain: MGSSKSKPKDPSQRSESRTSDKVYQMKNKPRGYCLIINNHDFSKAREDITQLRKMKDRKGTDCDKEALSKTFKELHFEIVSYDDCTANEIHEILEGYQSADHKNKDCFICCILSHGDKGVVYGTDGKEASIYDLTSYFTGSKCPSLSGKPKIFFIQACQGSNFQKGVPDEAGFEQQNHTLEVDSSSHKNYIPDEADFLLGMATVKNCVSYRDPVNGTWYIQSLCQSLRERCPQGDDILSILTGVNYDVSNKDDRRNKGKQMPQPTFTLRKKLFFPPLEPSAGDMRAANLWPSPLMIKRSKKNSLALSLTADQMVSALLDAEPPILYSEYDPTRPFSEASMMGLLTNLADRELVHMINWAKRVPGFVDLTLHDQVHLLECAWLEILMIGLVWRSMEHPVKLLFAPNLLLDRNQGKCVEGMVEIFDMLLATSSRFRMMNLQGEEFVCLKSIILLNSGVYTFLSSTLKSLEEKDHIHRVLDKITDTLIHLMAKAGLTLQQQHQRLAQLLLILSHIRHMSNKGMEHLYSMKCKNVVPLYDLLLEAADAHRLHAPTSRGGASVEETDQSHLATAGSTSSHSLQKYYITGEAEGFPATA
modifications: N-terminal myristoylation motif; fusion protein myrCasp8-ER(T2)

Key:
MEF5/N9 cells [1] = assay: Transient cotransfection of ER(T2) fusion expression vectors with β-galactosidase reporter; β-galactosidase activity in lysates; format: cell-based, mouse; settings: 10^−8 M 4-OH-tamoxifen, 48 h; for relative β-galactosidase activity in presence of 4-OH-tamoxifen compared to the negative control: relative to Cre-ER(T2) without 4-OH-tamoxifen
Description: The transformed mouse embryonic fibroblast cell line MEF5/N9 (Schwenk et al., Nucleic Acids Research, 26(6) 1427-1432 (1998)) was obtained from Michel Aguet (University of Zurich, Switzerland). The cells were grown in DMEM medium (Life Technologies) supplemented with 2 mM […] and 10% fetal calf serum at 37° C., 5% CO2 in humid atmosphere and passaged upon trypsinization. One day before transient transfection 4·10^4 cells were plated into a 24-well plate (Falcon). For the transient transfection of MEF5/N9 cells with plasmids, each well received into 500 μl of medium a total amount of 150 ng or 200 ng supercoiled plasmid DNA complexed before with the FuGene6 transfection reagent (Roche Diagnostics GmbH, Mannheim, Germany) according to the manufacturer's protocol. Each 150 ng or 200 ng DNA preparation (FIG. 2 sample 1 to 11) contained 100 ng of the β-Galactosidase expression vector pCMV-β-gal-pA (pCMVβ, Clontech, FIG. 1G, SEQ ID NO: 56), and 100 ng of the fusion ER(T2) expression vectors to be tested (FIG. 2 sample 3-7, 10-11) and the control plasmids (FIG. 2 sample 1-3), except for the samples with the plasmids pCAG-Casp9full-ER(T2)-bpA (FIG. 2 sample 8) and pCAG-Casp9trunc-ER(T2)-bpA (FIG. 2 sample 9), respectively, that received 50 ng of the test vector. For each sample to be tested four individual wells were transfected. Five hours after the addition of the DNA preparations each well received additional 500 μl of growth medium. The following day, the medium of two wells of each sample was replaced by fresh medium. The other two wells received medium containing 10^−8 M 4-hydroxy-tamoxifen (Sigma). 48 hours after induction with 4-OH-tamoxifen, the cells of each well were lysed with 200 μl lysate reagent supplemented with protease inhibitors (Roche Diagnostics GmbH). The lysates were centrifuged and 50 μl were used to determine the β-galactosidase activities using the β-galactosidase reporter gene assay (Roche Diagnostics GmbH) according to the manufacturer's protocol in a microplate luminometer (Berthold Detection Systems GmbH). The mean value and standard deviation of the samples was calculated from the β-galactosidase RLU values obtained from the two transfected wells of each sample. The relative β-galactosidase activity was obtained by comparison to the negative control (pCAG-Cre-ER(T2)-bpA) without 4-OH-tamoxifen.
To investigate the cell death effect of the different ER(T2) fusion constructs quantitatively, we performed transient cotransfections of the ER(T2) fusion protein expression vectors together with a fixed amount of a reporter plasmid coding for β-galactosidase in MEF5/N9 fibroblast cells. Transfected cells were treated 12 hours after transfection with 4-OH-tamoxifen at a concentration of 10^−8 M. Following 48 hours of 4-OH-tamoxifen induction, the cells from the various samples were lysed and the activity of β-galactosidase in the lysates was determined by a chemiluminescence assay and expressed in “Relative Light Units” (RLU) (FIG. 2). As positive controls for 4-OH-tamoxifen-inducible cell death, we prepared samples transfected with the constructs pCAG-HAFas-ER(T2) or pCAG-MFas-ER(T2) together with the reporter plasmid and treatment with 4-OH-tamoxifen. As negative control for this assay served samples which received the reporter plasmid together with the expression vector pCAG-Cre-ER(T2) and that were treated with 4-OH-tamoxifen.
To determine the relative activity of the tested ER(T2) fusion constructs inducing apoptosis in the presence of 4-OH-tamoxifen, the RLU values of β-galactosidase activity were divided individually for each sample by the RLU value obtained from the sample which received the plasmid pCAG-Cre-ER(T2) but was not treated with 4-OH-tamoxifen (defined as negative control). The relative activity of the tested Caspase- or bax-ER(T2) fusion proteins was then compared to the negative control for 4-OH-tamoxifen-dependent cell death defined as an activity of 1.

MEF5/N9 cells [2] = assay: MTT cytotoxicity assay of stably transfected MEF5/N9 clones; format: cell-based, mouse; settings: 10^−8 M 4-OH-tamoxifen, 48 h
Description: To generate stably transfected MEF5/N9 cells, 2·10^6 cells were coelectroporated with 32 μg ER(T2) fusion plasmid DNA linearised with ScaI and 8 μg pPgk-hygro-pA plasmid DNA linearised with XhoI and plated into two 96-well plates. The cells were grown in DMEM medium (Invitrogen) supplemented with 2 mM Glutamine and 10% fetal calf serum at 37° C., 5% CO2 in humid atmosphere, and passaged upon trypsinization. Two days after transfection the medium was supplemented with 250 U/ml of hygromycin (Calbiochem) for the selection of stable integrants. Upon the growth of resistant colonies these were individually expanded in the presence of hygromycin.
To quantify 4-OH-tamoxifen-inducible cell death, we applied the colorimetric MTT assay (Mossman, J. Immunol. Methods, 65, 55 (1983)) allowing the quantification of cell survival. Cells (4·10^3) were plated on 96-well plates. The assay was carried out in three replicas for each sample treated with and without 4-OH-tamoxifen. After 12 h, medium was replaced either with fresh medium or with medium supplemented with 10^−8 M 4-OH-tamoxifen. Following 48 h of 4-OH-tamoxifen treatment, sterile filtered MTT reagent in PBS (Sigma) was added at the concentration of 0.5 mg/ml. Incubation occurred for 4 hours at 37° C. With ongoing reaction time, dark violet MTT formazan crystals appeared on the bottom of the wells containing living cells. The crystals were dissolved in 150 μl 0.04 N HCl/isopropanol to give a homogeneous blue solution suitable for absorbance measurement at a wavelength of 570 nm on the Synergy™ HT Multi-Detection Microplate Reader (BioTek).

| Molecule | relative β-galactosidase activity in presence of 4-OH-tamoxifen compared to the negative control (MEF5/N9 cells [1]) [%] | cell viability in the presence of 4-OH-tamoxifen (MTT) (MEF5/N9 cells [2]) | 4-OH-tamoxifen-dependent activity / toxicity in transient transfection (in words) (MEF5/N9 cells [1]) |
| --- | --- | --- | --- |
| B1 | 7 | 6% | – |
| B2 | – | not affected by treatment with 4-OH-tamoxifen | Neither the expression of the negative control Cre-ER(T2) alone nor the combined treatment with 4-OH-tamoxifen at the concentration of 10^−8 M displayed toxic side effects |
| B3 | 3 | 31% | – |
| B4 | 0.1 | 9% | – |
